The Kd is a measure of binding affinity in units of concentration. Higher therefore signals a looser complex.

From patent publication US20240141072A1 (published 2024) come the findings set out here.

Assay [1] addresses DH56 anti-DLL3 trispecific protein. The assay is described as follows: Octet BLI, DLL3-Fc on anti-human Fc tips, single 50 nM. The method, then:
(§1) Using conditioned media containing known concentrations of anti-DLL3 trispecific proteins, the binding affinities of the anti-DLL3 trispecific proteins toward human and cynomolgus monkey DLL3 proteins were measured, using a method where the DLL3 proteins were expressed as human IgG1-Fc fusions and the measurements were carried out using an Octet instrument with anti-human Fc tips.
(In BLI a coated tip is dipped into the sample, and binding shifts an interference pattern.)

Assay [2] concerns the target DH54 anti-DLL3 trispecific protein. The assay is described as above. The method, then: as §1
Assay [3] concerns the target DH84 anti-DLL3 trispecific protein. The assay is described as above. The method, then:
as §1

In assay [4] the target is DH1 anti-DLL3 trispecific protein. Described as above. The method, then:
as §1

Assay [5] has as its target DH38 anti-DLL3 trispecific protein. The description is as above. The method, then: as §1
The target in assay [6] is DH29 anti-DLL3 trispecific protein. Described as above. The method, then:
as §1

Assay [7] deals with DH3 anti-DLL3 trispecific protein. The assay is described as above. Here is the method:
as §1

Assay [8] has as its target DH82 anti-DLL3 trispecific protein. The assay is described as above. Here is the method:
as §1

For assay [9], the target named is DH70 anti-DLL3 trispecific protein. The assay is described as above. The method, then: as §1
Assay [10] has as its target DH5 anti-DLL3 trispecific protein. The assay is described as above. The method, then:
as §1

Assay [11] deals with DH83 anti-DLL3 trispecific protein. Described as above. Here is the method: as §1
Assay [12] has as its target DH10 anti-DLL3 trispecific protein. The description is as above. The method, then: as §1
Assay [13] has as its target DH92 anti-DLL3 trispecific protein. The assay is described as above. Here is the method: as §1
The target of assay [14] is DH58 anti-DLL3 trispecific protein. The assay is described as above. The method, then:
as §1

For assay [15], the target named is DH69 anti-DLL3 trispecific protein. The assay is described as above. The method, then:
as §1

Assay [16] has as its target DH6 anti-DLL3 trispecific protein. The assay is described as above. Here is the method:
as §1

The target in assay [17] is DH17 anti-DLL3 trispecific protein. The assay is described as above. The method, then: as §1
Chain of DH17 anti-DLL3 trispecific protein (chain, as listed by the source): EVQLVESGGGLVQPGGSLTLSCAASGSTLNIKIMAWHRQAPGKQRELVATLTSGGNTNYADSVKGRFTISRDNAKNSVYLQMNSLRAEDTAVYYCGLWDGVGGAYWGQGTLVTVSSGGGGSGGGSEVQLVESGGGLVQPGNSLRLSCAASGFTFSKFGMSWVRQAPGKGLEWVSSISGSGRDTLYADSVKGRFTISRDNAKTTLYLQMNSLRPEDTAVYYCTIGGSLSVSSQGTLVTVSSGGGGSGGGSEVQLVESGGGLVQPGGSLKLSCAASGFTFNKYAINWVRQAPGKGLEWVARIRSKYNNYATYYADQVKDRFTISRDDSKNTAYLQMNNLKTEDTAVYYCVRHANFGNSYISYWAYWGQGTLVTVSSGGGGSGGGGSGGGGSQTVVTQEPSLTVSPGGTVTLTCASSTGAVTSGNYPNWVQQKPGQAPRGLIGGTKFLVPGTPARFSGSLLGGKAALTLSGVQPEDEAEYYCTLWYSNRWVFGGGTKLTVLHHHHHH
Assay [18] deals with DH80 anti-DLL3 trispecific protein. Described as above. The method, then: as §1
Assay [19] deals with DH15 anti-DLL3 trispecific protein. The assay is described as above. Here is the method: as §1
Assay [20] addresses DH45 anti-DLL3 trispecific protein. Described as above. The method, then: as §1
Assay [21] concerns the target DH61 anti-DLL3 trispecific protein. The assay is described as above. The method, then:
as §1

For assay [22], the target named is DH51 anti-DLL3 trispecific protein. Described as above. The method, then:
as §1

Assay [23] deals with DH11 anti-DLL3 trispecific protein. The assay is described as above. The method, then:
as §1

Assay [24] addresses DH67 anti-DLL3 trispecific protein. Described as above. Here is the method:
as §1

Assay [25] concerns the target DH27 anti-DLL3 trispecific protein. The assay is described as above. Here is the method:
as §1

Assay [26] deals with DH43 anti-DLL3 trispecific protein. Described as above. Here is the method: as §1
Chain of DH43 anti-DLL3 trispecific protein (chain, as listed by the source): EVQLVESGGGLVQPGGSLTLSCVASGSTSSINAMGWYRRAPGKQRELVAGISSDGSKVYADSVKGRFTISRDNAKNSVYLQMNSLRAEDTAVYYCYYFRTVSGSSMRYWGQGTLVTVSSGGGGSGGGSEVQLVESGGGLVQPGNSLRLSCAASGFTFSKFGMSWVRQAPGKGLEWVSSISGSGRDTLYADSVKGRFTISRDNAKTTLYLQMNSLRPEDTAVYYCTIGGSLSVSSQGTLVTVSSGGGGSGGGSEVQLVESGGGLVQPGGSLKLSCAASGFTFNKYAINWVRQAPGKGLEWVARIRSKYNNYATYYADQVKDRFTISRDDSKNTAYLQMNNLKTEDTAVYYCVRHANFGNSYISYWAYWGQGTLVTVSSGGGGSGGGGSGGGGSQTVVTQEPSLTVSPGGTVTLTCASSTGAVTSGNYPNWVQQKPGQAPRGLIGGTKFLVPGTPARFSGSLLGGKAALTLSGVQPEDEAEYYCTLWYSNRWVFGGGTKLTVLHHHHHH
For assay [27], the target named is DH94 anti-DLL3 trispecific protein. Described as above. The method, then: as §1
Chain of DH94 anti-DLL3 trispecific protein (chain, as listed by the source): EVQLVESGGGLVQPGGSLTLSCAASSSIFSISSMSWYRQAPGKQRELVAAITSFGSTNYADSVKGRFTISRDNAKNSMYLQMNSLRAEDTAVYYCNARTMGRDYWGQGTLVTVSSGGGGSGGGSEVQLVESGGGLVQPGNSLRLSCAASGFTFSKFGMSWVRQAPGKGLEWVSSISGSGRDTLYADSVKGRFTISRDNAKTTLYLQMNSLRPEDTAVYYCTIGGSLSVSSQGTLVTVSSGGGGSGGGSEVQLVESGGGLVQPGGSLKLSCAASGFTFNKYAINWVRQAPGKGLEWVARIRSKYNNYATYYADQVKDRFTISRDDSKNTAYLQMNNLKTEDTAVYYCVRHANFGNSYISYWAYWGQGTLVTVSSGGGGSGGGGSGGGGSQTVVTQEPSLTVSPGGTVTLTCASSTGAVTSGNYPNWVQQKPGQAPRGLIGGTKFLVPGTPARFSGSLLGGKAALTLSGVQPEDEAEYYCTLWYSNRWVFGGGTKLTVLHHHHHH
The target in assay [28] is DH42 anti-DLL3 trispecific protein. The assay is described as above. The method, then:
as §1

Assay [29] concerns the target DH22 anti-DLL3 trispecific protein. The assay is described as above. Here is the method:
as §1

Assay [30] deals with DH89 anti-DLL3 trispecific protein. The description is as above. The method, then:
as §1

For assay [31], the target named is DH18 anti-DLL3 trispecific protein. Described as above. The method, then:
as §1

Assay [32] deals with DH12 anti-DLL3 trispecific protein. The description is as above. The method, then: as §1
For assay [33], the target named is DH2 anti-DLL3 trispecific protein. The assay is described as above. Here is the method:
as §1

Assay [34] addresses DH23 anti-DLL3 trispecific protein. The description is as above. Here is the method:
as §1

The target in assay [35] is DH3 anti-DLL3 trispecific protein. The assay is described as follows: Octet BLI, single 50 nM. Here is the method:
as §1

Assay [36] concerns the target T1, 52C4 anti-DLL3 trispecific protein (CHO expressed, purified) (biotinylated).
T1 construct: also called 52C04
The assay is described as follows: Octet BLI, biotinylated trispecific on streptavidin tips.

Assay [37] has as its target 53A05 anti-DLL3 trispecific protein. The assay is described as follows: Octet BLI, streptavidin tips, single 50 nM. Here is the method: (§2) Using the conditioned medium with known concentrations of the anti-DLL3 trispecific proteins, the relative binding affinities of the anti-DLL3 trispecific proteins toward human DLL3 protein were measured using a method where biotinylated version of human DLL3 protein were expressed as a human IgG1 fusion protein, and the binding affinity measurement was carried out in an Octet instrument with streptavidin tips.

The target in assay [38] is 41D07 anti-DLL3 trispecific protein. The assay is described as follows: Octet BLI, streptavidin tips, single 50 nM. The method, then: as §2
Assay [39] addresses DH6 anti-DLL3 trispecific protein. Briefly: Octet BLI, single 50 nM, four samples of conditioned medium. Here is the method:
(§3) Using the conditioned medium with known concentrations of the anti-DLL3 trispecific proteins, the binding affinities of the anti-DLL3 trispecific proteins toward human DLL3 protein were measured using a method where biotinylated version of human DLL3 protein were expressed as a human IgG1 fusion protein, and the binding affinity measurement was carried out in an Octet instrument with streptavidin tips.

Assay [40] addresses DH43 anti-DLL3 trispecific protein. Described as above. Here is the method: as §3
The target of assay [41] is DH6 anti-DLL3 trispecific protein. Briefly: Octet BLI, 60/20/6.67/2.22 nM. The method, then:
as §3

The target of assay [42] is DH43 anti-DLL3 trispecific protein. Briefly: Octet BLI, 60/20/6.67/2.22 nM. The method, then:
as §3

Chain of DH6 anti-DLL3 trispecific protein (chain, as listed by the source): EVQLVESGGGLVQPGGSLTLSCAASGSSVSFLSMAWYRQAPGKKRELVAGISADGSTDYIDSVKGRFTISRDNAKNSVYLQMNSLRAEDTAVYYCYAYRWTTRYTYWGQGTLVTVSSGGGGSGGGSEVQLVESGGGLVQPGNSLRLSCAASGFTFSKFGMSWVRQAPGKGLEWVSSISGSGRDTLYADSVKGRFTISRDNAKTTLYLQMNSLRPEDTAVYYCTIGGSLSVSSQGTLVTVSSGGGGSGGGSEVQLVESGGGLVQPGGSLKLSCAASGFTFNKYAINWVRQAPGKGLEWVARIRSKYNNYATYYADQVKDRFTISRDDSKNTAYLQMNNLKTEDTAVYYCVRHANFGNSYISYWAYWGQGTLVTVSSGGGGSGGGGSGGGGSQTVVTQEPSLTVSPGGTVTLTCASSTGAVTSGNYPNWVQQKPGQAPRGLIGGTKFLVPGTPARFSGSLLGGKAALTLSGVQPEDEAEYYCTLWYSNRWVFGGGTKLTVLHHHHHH
Chain of DH3 anti-DLL3 trispecific protein (chain, as listed by the source): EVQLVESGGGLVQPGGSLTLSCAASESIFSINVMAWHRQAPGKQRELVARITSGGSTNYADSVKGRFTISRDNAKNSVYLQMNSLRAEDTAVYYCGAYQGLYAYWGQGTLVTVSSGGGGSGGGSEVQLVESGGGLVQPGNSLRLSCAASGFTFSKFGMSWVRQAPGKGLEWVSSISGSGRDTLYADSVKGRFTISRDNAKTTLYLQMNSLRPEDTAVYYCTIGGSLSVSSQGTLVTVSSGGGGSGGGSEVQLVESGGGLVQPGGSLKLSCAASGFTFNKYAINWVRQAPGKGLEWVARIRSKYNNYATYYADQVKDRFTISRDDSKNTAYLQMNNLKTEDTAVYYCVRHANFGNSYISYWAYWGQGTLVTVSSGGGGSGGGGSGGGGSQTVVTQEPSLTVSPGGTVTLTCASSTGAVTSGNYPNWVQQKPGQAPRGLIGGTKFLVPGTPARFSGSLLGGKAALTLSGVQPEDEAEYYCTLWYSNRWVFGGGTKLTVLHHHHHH
Chain of DH54 anti-DLL3 trispecific protein (chain, as listed by the source): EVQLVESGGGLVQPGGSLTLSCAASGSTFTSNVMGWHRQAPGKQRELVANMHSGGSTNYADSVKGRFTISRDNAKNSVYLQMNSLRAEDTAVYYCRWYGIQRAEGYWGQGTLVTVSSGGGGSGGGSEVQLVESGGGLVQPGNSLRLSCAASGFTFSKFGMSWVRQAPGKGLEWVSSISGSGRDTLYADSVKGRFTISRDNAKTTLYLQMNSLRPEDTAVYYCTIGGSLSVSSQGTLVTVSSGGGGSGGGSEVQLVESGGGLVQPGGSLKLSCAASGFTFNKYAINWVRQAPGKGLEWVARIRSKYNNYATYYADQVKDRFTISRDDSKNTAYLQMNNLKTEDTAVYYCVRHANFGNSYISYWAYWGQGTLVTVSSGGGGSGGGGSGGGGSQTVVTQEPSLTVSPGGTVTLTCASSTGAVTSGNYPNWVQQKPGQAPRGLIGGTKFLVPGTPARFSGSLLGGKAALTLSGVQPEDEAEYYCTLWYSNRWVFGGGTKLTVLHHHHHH
Chain of DH51 anti-DLL3 trispecific protein (chain, as listed by the source): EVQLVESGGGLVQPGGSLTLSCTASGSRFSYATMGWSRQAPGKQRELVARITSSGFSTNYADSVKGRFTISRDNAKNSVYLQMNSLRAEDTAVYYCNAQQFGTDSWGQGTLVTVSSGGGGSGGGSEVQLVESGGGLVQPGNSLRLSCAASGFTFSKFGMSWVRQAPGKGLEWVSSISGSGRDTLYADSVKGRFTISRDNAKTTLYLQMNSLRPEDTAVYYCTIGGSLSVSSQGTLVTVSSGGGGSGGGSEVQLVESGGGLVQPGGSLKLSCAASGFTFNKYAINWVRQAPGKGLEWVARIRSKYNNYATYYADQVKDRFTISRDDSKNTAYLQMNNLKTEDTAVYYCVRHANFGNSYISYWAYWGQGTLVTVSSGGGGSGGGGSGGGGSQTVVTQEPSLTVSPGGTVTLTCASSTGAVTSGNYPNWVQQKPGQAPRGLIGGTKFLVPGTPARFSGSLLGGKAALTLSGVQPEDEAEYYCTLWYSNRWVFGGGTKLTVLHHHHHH
Chain of DH61 anti-DLL3 trispecific protein (chain, as listed by the source): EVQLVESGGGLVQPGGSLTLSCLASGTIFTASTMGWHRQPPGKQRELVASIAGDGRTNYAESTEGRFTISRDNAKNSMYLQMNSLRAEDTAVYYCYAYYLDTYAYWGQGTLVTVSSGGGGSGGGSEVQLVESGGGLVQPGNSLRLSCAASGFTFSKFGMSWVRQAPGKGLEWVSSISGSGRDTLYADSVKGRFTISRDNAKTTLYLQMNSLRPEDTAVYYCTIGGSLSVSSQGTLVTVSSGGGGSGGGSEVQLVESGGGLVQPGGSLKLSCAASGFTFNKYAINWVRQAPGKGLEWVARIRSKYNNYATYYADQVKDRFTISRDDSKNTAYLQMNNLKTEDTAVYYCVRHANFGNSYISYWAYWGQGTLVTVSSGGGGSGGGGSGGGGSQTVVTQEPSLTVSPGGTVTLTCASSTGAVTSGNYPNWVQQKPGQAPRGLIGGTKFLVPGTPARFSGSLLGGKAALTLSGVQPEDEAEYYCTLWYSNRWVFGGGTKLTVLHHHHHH
Chain of DH38 anti-DLL3 trispecific protein (chain, as listed by the source): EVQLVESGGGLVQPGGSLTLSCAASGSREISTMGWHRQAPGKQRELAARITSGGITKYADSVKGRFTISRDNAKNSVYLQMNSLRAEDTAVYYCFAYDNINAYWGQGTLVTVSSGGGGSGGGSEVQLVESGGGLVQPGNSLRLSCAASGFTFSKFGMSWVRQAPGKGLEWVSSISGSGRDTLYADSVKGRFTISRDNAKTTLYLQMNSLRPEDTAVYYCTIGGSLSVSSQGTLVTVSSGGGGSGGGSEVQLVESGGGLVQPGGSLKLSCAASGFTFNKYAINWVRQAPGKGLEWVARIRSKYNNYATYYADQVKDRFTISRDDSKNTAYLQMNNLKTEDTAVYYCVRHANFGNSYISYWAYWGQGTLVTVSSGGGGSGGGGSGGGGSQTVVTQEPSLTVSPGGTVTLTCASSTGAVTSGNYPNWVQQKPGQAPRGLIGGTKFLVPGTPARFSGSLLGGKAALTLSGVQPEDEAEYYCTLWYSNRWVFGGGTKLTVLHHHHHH

B1: cynomolgus monkey DLL3 protein expressed as human IgG1-Fc fusion (Fc fusion, Macaca fascicularis)
chain: AGVFELQIHSFGPGPGGAPRSPYSARGPCRLFFRVCLKPGLSEEAAESPCALGAALSARGPVYTEQPEAPAPDLPLPNGLLQVPFRDAWPGTFSLIIETWREELGDQIGGPAWSLLARVTRRRRLAAGGPWAGDIQRAGAWELRFSYRARCELPAVGTACTRLCRPRSASRCGPGLRPCAPLEDECEAPPVCRAGCSLEHGFCEQPGECRCLEGWTGPLCMVPVSTSSCLGLRGPSSTTTGCLVPGPGPCDGNPCANGGSCSETPGSFECTCPRGFYGLRCEVSGVTCADGPCFNGGLCVGGADPDSAYICHCPPGFQGSNCEKRVDRCSLQPCRNGGLCLDLGHALRCRCRAGFAGPRCEHDLNDCAGRACANGGTCVEGGGAHRCSCALGFGGRDCRERADPCAARPCAHGGRCYAHFSGLVCACAPGYMGARCEFPVHPDGVSALPAAPPGLRPGDPQRYP
notes: also called cyDLL3; not shown: human IgG1 Fc
For B1, the Kd in assay [1] was 8 nM; in assay [2], 42.4 nM; in assay [3] it was 17.9 nM; in assay [4], 10.7 nM; in [9], 86.2 nM; in [10], 5.5 nM. Also, the Kd in assay [12] worked out at 25 nM; in assay [13] it was 17.5 nM; in assay [14] it was 27.9 nM; in assay [15], 7 nM; in assay [16], 6.8 nM; in assay [18], 5.5 nM. For the same molecule, the Kd stood at 2.8 nM in [20]; 30.8 nM in assay [21]; 18.2 nM in assay [22]; 5.6 nM in [23]; 8.2 nM in assay [24]; 11.3 nM in assay [25]. In addition, the Kd in [26] amounted to 5.5 nM; in assay [27], 9.6 nM; in assay [28], 11.7 nM; in assay [29], 16.4 nM; in assay [31], 5.9 nM; in assay [33], 14.6 nM. In addition, the binding result in [5], in assay [6], in assay [7], in assay [8], in assay [11] and in [17] was “no binding (tested: 50 nM)” throughout. Besides, the binding result in assay [19], in [30], in assay [32] and in [34] was “no binding (tested: 50 nM)” each time.

B2: human DLL3 protein expressed as human IgG1-Fc fusion (Fc fusion)
chain: AGVFELQIHSFGPGPGPGAPRSPCSARLPCRLFFRVCLKPGLSEEAAESPCALGAALSARGPVYTEQPGAPAPDLPLPDGLLQVPFRDAWPGTFSFIIETWREELGDQIGGPAWSLLARVAGRRRLAAGGPWARDIQRAGAWELRFSYRARCEPPAVGTACTRLCRPRSAPSRCGPGLRPCAPLEDECEAPLVCRAGCSPEHGFCEQPGECRCLEGWTGPLCTVPVSTSSCLSPRGPSSATTGCLVPGPGPCDGNPCANGGSCSETPRSFECTCPRGFYGLRCEVSGVTCADGPCFNGGLCVGGADPDSAYICHCPPGFQGSNCEKRVDRCSLQPCRNGGLCLDLGHALRCRCRAGFAGPRCEHDLDDCAGRACANGGTCVEGGGAHRCSCALGFGGRDCRERADPCAARPCAHGGRCYAHFSGLVCACAPGYMGARCEFPVHPDGASALPAAPPGLRPGDPQRYL
notes: also called huDLL3; not shown: human IgG1 Fc
With B2, the dissociation constant Kd in assay [35] is 42 nM; in assay [1] it was 8.1 nM; in [2] it was 20.6 nM; in assay [3] it was 15.2 nM; in assay [4], 3.5 nM; in [5], 11.9 nM. Also, the Kd in assay [6] is 5.6 nM; in assay [7], 41.9 nM; in [8], 6.6 nM; in assay [9], 16.2 nM; in [10] it was 0.5 nM; in assay [11], 4.7 nM. Also, the Kd in [12] was 3.9 nM; in assay [13] it was 18 nM; in [14] it was 3.3 nM; in [15] it was 1.2 nM; in assay [16], 6.1 nM; in assay [17] it was 7 nM. The Kd was 0.8 nM in [18]; 17.4 nM in assay [19]; 1.9 nM in assay [20]; 10.6 nM in [21]; 5.1 nM in [22]; 5.3 nM in assay [23]. Moreover, the dissociation constant (Kd) came to 8.4 nM in assay [24]; 2.1 nM in [25]; 4.3 nM in assay [26]; 2.6 nM in assay [27]; 4.3 nM in assay [28]; 6.8 nM in [29]. Moreover, the Kd in assay [30] is 6.9 nM; in assay [31] it was 1 nM; in assay [32], 1.3 nM; in assay [33], 6.5 nM; in [34], 9.9 nM.

B3: human DLL3 (Example 6) (ligand)
chain: B2 chain
notes: also called huDLL3
In assay [36], B3 gave a Kd of 2.2 nM. That is a single-digit nanomolar value.

B4: biotinylated human DLL3 protein expressed as a human IgG1 fusion protein (Fc fusion, not shown: a dimerising Fc or GST)
chain: B2 chain
modifications: biotinylated
With B4, the Kd came out at 0.3 nM in assay [37]; 34 nM in assay [38]; 9.9 nM in assay [39]; 7.7 nM in assay [40]; 9 nM in assay [41]; 8.9 nM in [42].
